# Measured values from patent US20180037651A1 (Janssen / Centocor, published 2018).
# Substitutions are numbered along the chain they refer to. In names and notes the source's numbering stands.
# T1: cyno GPRC5D (cyno, UniProt Q9NZD1 1-343 (human entry))
# T1 chain: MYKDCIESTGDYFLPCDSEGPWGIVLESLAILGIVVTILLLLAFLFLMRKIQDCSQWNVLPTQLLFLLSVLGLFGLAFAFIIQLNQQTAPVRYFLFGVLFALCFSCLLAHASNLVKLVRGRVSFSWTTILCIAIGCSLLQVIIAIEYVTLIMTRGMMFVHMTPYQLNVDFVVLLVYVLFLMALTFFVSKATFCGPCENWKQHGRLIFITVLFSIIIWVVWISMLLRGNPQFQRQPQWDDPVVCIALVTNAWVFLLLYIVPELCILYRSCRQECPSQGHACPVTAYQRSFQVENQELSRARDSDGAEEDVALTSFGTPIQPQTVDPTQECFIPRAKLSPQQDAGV
# T2: murine GPRC5D (murine, UniProt Q9JIL6 1-344)
# T2 construct: also called mouse GPRC5D
# T2 sequence: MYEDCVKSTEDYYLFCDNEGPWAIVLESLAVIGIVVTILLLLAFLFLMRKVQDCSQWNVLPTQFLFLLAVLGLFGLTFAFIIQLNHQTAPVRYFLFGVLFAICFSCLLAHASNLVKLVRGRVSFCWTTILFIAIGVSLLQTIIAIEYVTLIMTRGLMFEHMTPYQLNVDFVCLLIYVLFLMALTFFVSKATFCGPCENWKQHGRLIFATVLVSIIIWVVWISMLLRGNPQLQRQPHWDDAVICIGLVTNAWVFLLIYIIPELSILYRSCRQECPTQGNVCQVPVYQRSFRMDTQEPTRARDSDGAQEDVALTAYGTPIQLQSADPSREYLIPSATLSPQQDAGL
# B1: GC5B590 (antibody, V domains shown)
# VH: QVTLKESGPVLVKPTETLTLTCTVSGFSLTSYNVHWIRQPPGKALEWLAVIWAGGSTNYNSALKSRLTISKDTSKSQVVLTMTNMRAEDTATYYCARDGIRLRFAYWGQGTLVTVSS
# VL: EIVMTQSPATLSVSPGERATLSCKASQNVATHVGWYQQKPGQAPRLLIYSASYRYSGIPARFSGSGSGTEFTLTISSLQSEDFAVYYCQQYNRYPYTFGQGTKLEIK
# notes: GC5B540 PTM variant
# B2: GC5B592 (antibody, V domains shown)
# VH: B1 VH with K64M, G99A
# VL: B1 VL
# notes: GC5B540 PTM variant
# B3: GC5B594 (antibody, V domains shown)
# VH: B1 VH with G99A
# VL: B1 VL
# notes: GC5B540 PTM variant
# B4: GCDB45 (bispecific antibody, IgG4, V domains shown)
# VH 1: EVQLVQSGAEVKKPGESLKISCKGSGYSFTSYWIGWVRQMPGKGLEWMGIIYPGDSDTRYSPSFQGQVTISADKSISTAYLQWSSLKASDTAMYYCARIGFYGRSFRIFDYWGQGTLVTVSS
# VL 1: EIVLTQSPATLSLSPGERATLSCRASQSVSSYLAWYQQKPGQAPRLLIYDASNRATGIPARFSGSGSGTDFTLTISSLEPEDFAVYYCQQRSNWPLTFGQGTKVEIK
# VH 2: EVQLVESGGGLVQPGGSLRLSCAASGFTFNTYAMNWVRQAPGKGLEWVARIRSKYNNYATYYAASVKGRFTISRDDSKNSLYLQMNSLKTEDTAVYYCARHGNFGNSYVSWFAYWGQGTLVTVSS
# VL 2: QTVVTQEPSLTVSPGGTVTLTCRSSTGAVTTSNYANWVQQKPGQAPRGLIGGTNKRAPGTPARFSGSLLGGKAALTLSGVQPEDEAEYYCALWYSNLWVFGGGTKLTVL
# notes: IgG4-PAA bispecific; also called GC5B332 x CD3B219
# B5: GCDB44 (bispecific antibody, IgG4, V domains shown)
# VH 1: not shown
# VL 1: B4 VL 1
# VH 2: B4 VH 2
# VL 2: B4 VL 2
# notes: IgG4-PAA bispecific; also called GC5B320 x CD3B219
# B6: GCDB61 (bispecific antibody, IgG4, V domains shown)
# VH 1: EVQLVQSGAEVKKPGESLKISCKGSGYSFTSYFIGWVRQMPGKGLEWMGIIYPGKSDTRYSPSFQGQVTISADKSISTAYLQWSSLKASDTAMYYCARVYSFGGRHKALFDYWGQGTLVTVSS
# VL 1: B4 VL 1
# VH 2: B4 VH 2
# VL 2: B4 VL 2
# notes: IgG4-PAA by Fab arm exchange; CD3 arm also F405L, R409K; also called GC5B483 x CD3B219
# B7: GCDB72 (bispecific antibody, IgG4, V domains shown)
# VH 1: QVQLVQSGAEVKKPGASVKVSCKASGYSFTGYTMNWVRQAPGQGLEWMGLINPYNSDTNYAQKLQGRVTMTTDTSTSTAYMELRSLRSDDTAVYYCARVALRVALDYWGQGTLVTVSS
# VL 1: DIQMTQSPSSLSASVGDRVTITCKASQNVATHVGWYQQKPGKAPKRLIYSASYRYSGVPSRFSGSGSGTEFTLTISNLQPEDFATYYCQQYNRYPYTFGQGTKLEIK
# VH 2: B4 VH 2
# VL 2: B4 VL 2
# notes: IgG4-PAA by Fab arm exchange; CD3 arm also F405L, R409K; also called GC5B596 x CD3B219
# B8: GC5B332 (antibody, IgG1, V domains shown)
# VH: B4 VH 1
# VL: B4 VL 1
# notes: GC5H35+PH9L3 (L6); human IgG4PAA
# B9: GCDB53 (bispecific antibody, IgG4, V domains shown)
# VH 1: not shown
# VL 1: not shown
# VH 2: B4 VH 2
# VL 2: B4 VL 2
# notes: IgG4-PAA by Fab arm exchange; CD3 arm also F405L, R409K; also called GC5B465 x CD3B219
# B10: GCDB32 (bispecific antibody, human IgG4 S228P, lambda, F234A L235A)
# heavy 1: not shown
# VL: not shown
# heavy 2: EVQLVESGGGLVQPGGSLRLSCAASGFTFNTYAMNWVRQAPGKGLEWVARIRSKYNNYATYYAASVKGRFTISRDDSKNSLYLQMNSLKTEDTAVYYCARHGNFGNSYVSWFAYWGQGTLVTVSSASTKGPSVFPLAPCSRSTSESTAALGCLVKDYFPEPVTVSWNSGALTSGVHTFPAVLQSSGLYSLSSVVTVPSSSLGTKTYTCNVDHKPSNTKVDKRVESKYGPPCPPCPAPEAAGGPSVFLFPPKPKDTLMISRTPEVTCVVVDVSQEDPEVQFNWYVDGVEVHNAKTKPREEQFNSTYRVVSVLTVLHQDWLNGKEYKCKVSNKGLPSSIEKTISKAKGQPREPQVYTLPPSQEEMTKNQVSLTCLVKGFYPSDIAVEWESNGQPENNYKTTPPVLDSDGSFLLYSKLTVDKSRWQEGNVFSCSVMHEALHNHYTQKSLSLSLGK
# light: QTVVTQEPSLTVSPGGTVTLTCRSSTGAVTTSNYANWVQQKPGQAPRGLIGGTNKRAPGTPARFSGSLLGGKAALTLSGVQPEDEAEYYCALWYSNLWVFGGGTKLTVLGQPKAAPSVTLFPPSSEELQANKATLVCLISDFYPGAVTVAWKADSSPVKAGVETTTPSKQSNNKYAASSYLSLTPEQWKSHRSYSCQVTHEGSTVEKTVAPTECS
# notes: IgG4-PAA by Fab arm exchange; also called GC5B81 x CD3B219; copies: 1 + 1 + 1 + 1
# B11: GCDB35 (bispecific antibody, IgG4)
# heavy 1: not shown
# VL: B4 VL 1
# heavy 2: B10 heavy 2
# light: B10 light
# How the values were obtained:
# [1] = biological target: T3, human GPRC5D (human, UniProt Q9NZD1 1-345); experiment: FACS, human GPRC5D cells
# T3 construct: on transfected HEK293/RBL cells or endogenous on myeloma cells (H929, MM1R, OPM2, LP1, JIM3, patient plasma cells); also called G protein-coupled receptor class C group 5 member D; hGPRC5D
# [2] = biological target: T1, cyno GPRC5D; experiment: cell-based or functional assay
# [3] = biological target: T3, human GPRC5D; experiment: FACS, MM1R, H929 and human GPRC5D HEK293 cells
# [4] = biological target: T3, human GPRC5D; experiment: FACS titration, human GPRC5D HEK293 cells
# [5] = biological target: T3, human GPRC5D; experiment: FACS binding to plasma cells in MM patient MM305BM bone marrow MNCs
# [6] = biological target: T3, human GPRC5D; experiment: FACS binding to plasma cells in MM patient MM303BM bone marrow MNCs
# [7] = biological target: T2, murine GPRC5D; experiment: FACS, murine GPRC5D
# [8] = biological target: T1, cyno GPRC5D; experiment: cell-based or functional assay
# [9] = biological target: T3, human GPRC5D; experiment: cell-based or functional assay
# [10] = biological target: T1, cyno GPRC5D; experiment: FACS, cyno GPRC5D HEK293F cells
# [11] = biological target: T3, human GPRC5D; experiment: FACS, human GPRC5D HEK293F cells
# [12] = biological target: T1, cyno GPRC5D; experiment: FACS, cyno GPRC5D cells, 1 ug/ml
# Procedure: Whole cell phage panning was completed using the human GPRC5D cells as antigen, as described above. […] These mAbs were initially evaluated for binding to cyno GPRC5D using FACS. […] Briefly, FACS screening was performed by normalizing protein concentration to 1 ug/ml and 100 ul of protein was mixed with 200,000 cells per well. The mAb was allowed to incubate with cells for 1 hour at 4° C. The cells were then washed three times with PBS and 0.2% FBS. […] The cells and secondary antibody were incubated for 1 hour at 4° C. The cells were then washed three times with PBS and 0.2% FBS. The cells were washed again using PBS and 0.2% FBS and then analyzed on FACSarry.
# T3 sequence (Q9NZD1 whole entry): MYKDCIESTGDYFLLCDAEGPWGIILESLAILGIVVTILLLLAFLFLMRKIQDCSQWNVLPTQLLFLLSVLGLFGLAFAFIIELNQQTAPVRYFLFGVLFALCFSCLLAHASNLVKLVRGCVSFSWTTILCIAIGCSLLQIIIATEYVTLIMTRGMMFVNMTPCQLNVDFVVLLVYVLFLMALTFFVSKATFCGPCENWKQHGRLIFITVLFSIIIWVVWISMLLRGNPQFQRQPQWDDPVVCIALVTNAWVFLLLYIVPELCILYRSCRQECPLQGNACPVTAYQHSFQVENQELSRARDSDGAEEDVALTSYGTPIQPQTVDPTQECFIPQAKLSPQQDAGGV
binder,measurement,setting,value
B1,binding result,[1],binds
B2,binding result,[1],binds
B3,binding result,[1],binds
B4,"T cell mediated target cell killing, Cyno GPRC5D EC50",[2],2.82 nM
same,binding result,[3],binds
B5,binding result,[4],binds
B6,EC50,[5],6.93 nM
same,EC50,[6],5.53 nM
same,MFI,[7],3550 MFI
same,"T-cell redirection cytotoxicity EC50, cyno GPRC5D HEK cells",[8],1.22 nM
same,"T-cell redirection cytotoxicity EC50, human GPRC5D HEK cells",[9],0.03 nM
B7,MFI,[7],481 MFI
same,"T-cell redirection cytotoxicity EC50, cyno GPRC5D HEK cells",[8],3.41 nM
B8,MFI,[10],107000 MFI
same,MFI,[11],13300 MFI
same,MFI,[12],192000 MFI
B9,EC50,[5],10.2 nM
same,EC50,[6],3.98 nM
same,MFI,[7],2660 MFI
same,"T-cell redirection cytotoxicity EC50, cyno GPRC5D HEK cells",[8],0.36 nM
same,"T-cell redirection cytotoxicity EC50, human GPRC5D HEK cells",[9],0.08 nM
B10,EC50,[5],70.4 nM
same,EC50,[6],16.1 nM
same,"T cell mediated target cell killing, Cyno GPRC5D EC50",[2],0.19 nM
same,MFI,[7],1150 MFI
same,"T-cell redirection cytotoxicity EC50, cyno GPRC5D HEK cells",[8],0.07 nM
same,"T-cell redirection cytotoxicity EC50, human GPRC5D HEK cells",[9],0.04 nM
B11,"T cell mediated target cell killing, Cyno GPRC5D EC50",[2],4.65 nM
